The results in this text go back to the supplement of paper PMC9170038.

The series relates to MS2 coat protein. Nature of the series: apparent KD of MS2 coat protein; designed switch direction (-1 OFF switch, 1 ON switch): -1; higher = weaker reporter binding. The procedure, abridged: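 Designed RNA switches with common flanks were transcribed on Illumina chips by stalled E. coli RNA polymerase and titrated with SNAP-549-labelled MS2 coat protein, from 0.7 or 1.5 nM doubling to 3 µM, in Tris-HCl pH 7.5 buffer with KCl, MgCl2, BSA, DTT, tRNA and Tween-20. Steps lasted 0.8–1.5 h (lowest) to 10–20 min (highest). Titrations ran without input, with 200 uM small-molecule ligand, or with an oligonucleotide input. Normalised cluster fluorescence was curve-fitted, and apparent KD is the per-design median over clusters.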

[1] abbreviates: input ligand: microRNA oligo, concentration not stated.
The mark [2] stands for this setting: Eterna round: R95, input ligand: microRNA oligo, concentration not stated.
The mark [3] stands for this setting: Eterna round: R95, input ligand: FMN 200 uM.
Where [4] appears, read: Eterna round: R95, input ligand: none.

Take “GCAGCGUAUGUAGGAUAUCGGUCAGUUUCUGAUCGAGAAGGACAUGAGGAUCACCCAUGUUAAGUCAUGCGUGAGCAUGGCUGC [JL ENG1 3.72] (Eterna round: R96, puzzle: Exclusion NG 1)”: the “apparent KD of MS2 coat protein” value by setting is: (input ligand: FMN 200 uM) 317 nM; under setting [1], 23.8 nM; (input ligand: none) 31.4 nM.

Consider “GCAGCUAAUGCAGGAUAUCAGCACGAUUAGUGCUGAGAAGGGCACAUGAGGAUCACCCAUGUGAUCAAUUAAUAUUAAUGCUGC [ENG1/11-B1] (Eterna round: R96, puzzle: Exclusion NG 1)”, for which the “apparent KD of MS2 coat protein” value by setting is: (input ligand: FMN 200 uM) 184 nM; under setting [1], 24 nM; (input ligand: none) 25.1 nM.

Take “GCAGCUAGUUCAGGAUAUCAGCACGUGUAGUGCUGAGAAGGGAACAUGAGGAUCACCCAUGUGAUCAAUGCUGCAAUUUUAAUU [ENG1/12-A3] (Eterna round: R96, puzzle: Exclusion NG 1)”: the “apparent KD of MS2 coat protein” value runs as follows: (input ligand: FMN 200 uM) 780 nM; under setting [1], 461 nM; (input ligand: none) 2260 nM.

On to “GCAGGAUAAGUGAGGAUAUACCUAUGGAUACAUAGGUAGAAGGUACAUGAGGAUCACCCAUGUUCCUCACCUGC [Fiskers BMX 4 - 64] (puzzle: Brourd's mod of Exclusion 4)”, for which the “apparent KD of MS2 coat protein” value under setting [2] is 10.1 nM.

As to “GCAGGAUAAGUGAGGAUAUACCUCUGGAUACAGAGGUAGAAGGCACAUGAGGAUCACCCAUGUCUAUCACCUGC [Fiskers BMX 4 - 78] (puzzle: Brourd's mod of Exclusion 4)”, the “apparent KD of MS2 coat protein” value under setting [2] is 14.5 nM.

Regarding “GCAGGCGUCUUGGCUCGUCUUAUUUGGAGAGGAUUGAUAACAUGAGGAUCACCCAUGUGUGUGGGAGAGUUGCAGUG [JR_SV3TOV2_Sub017] (puzzle: Sensor v3, turn-off variant 2)”, the “apparent KD of MS2 coat protein” value turned out to be 293 nM under setting [3], 203 nM under setting [2] and 374 nM under setting [4].

As to “GCAGGUUAAGUCAGGAUAUACCUAUGGAUACAUAGGUAGAAGGGACAUGAGGAUCACCCAUGUUUCUCAUCUGC [Mod of Eli 2 - Jieux - Brourd's mod of Exclusion 4] (Eterna round: R97, puzzle: Brourd's mod of Exclusion 4)”, the “apparent KD of MS2 coat protein” value was determined as 61.5 nM (input ligand: FMN 200 uM) and 21.7 nM (input ligand: none).

“GCAGUAUGAGUUAGGAUAUGAUGAUUUAAAAUAAAUCAGAAGGAACUUGAGGAUCACCCAAGUAAAGAAUUGGU [JR_BMEx4_Sub071] (Eterna round: R97, puzzle: Brourd's mod of Exclusion 4)”: the “apparent KD of MS2 coat protein” value reads like this: (input ligand: FMN 200 uM) 25.3 nM; (input ligand: none) 22.1 nM.

On to “GCAGUGCGAGGAUAUACAUGAGGAUCACCCAUGUGAGAGAAAUAAGUGAGGAAGAAAAGUAGAAGGCGCGUUGG [Mat - Exclusion 3 - Mod of Salish D69] (puzzle: Exclusion 3)”, for which the “apparent KD of MS2 coat protein” value was found to be 95.2 nM under setting [3], 40.8 nM under setting [2] and 69.1 nM under setting [4].

Consider “GCAUCCAAUGUGAGGAUAUACCUCUGGAUACAUAGGUAGAAGGCACAUGAGGAUCACCCAUGUUCCAAGGAUGC [Fiskers BMX 4 - 30] (puzzle: Brourd's mod of Exclusion 4)”, for which the “apparent KD of MS2 coat protein” value runs as follows: under setting [3], 183 nM; under setting [2], 65 nM; under setting [4], 82 nM.

“GCAUGUUGGUAGGAUAUGCAGCGAAAACCGCUAGUAGAAGGAUUGACAUGAGGAUCACCCAUGUGAACCGAAGG [Esesbece] (Eterna round: R97, puzzle: Exclusion 6)”: the “apparent KD of MS2 coat protein” value (input ligand: FMN 200 uM) was 139 nM and the “apparent KD of MS2 coat protein” value (input ligand: none) is 36.6 nM.

For “GCCAGAGCAGGAUAUCUAUAUUAUCACAUGAGGAUCACCCAUGUCCAGCGAAAGCUGGAGGGAGAAGGGCUCUGGC [Fiskers Ex 5 - 26] (Eterna round: R96, puzzle: Exclusion 5)”, the “apparent KD of MS2 coat protein” value (input ligand: FMN 200 uM) turned out to be 51 nM, the “apparent KD of MS2 coat protein” value under setting [1] came out at 60.9 nM and the “apparent KD of MS2 coat protein” value (input ligand: none) is 104 nM.

As to “GCCAGAGCAGGAUAUCUAUAUUAUCACAUGAGGAUCACCCAUGUCCAGCGAAAGCUGGAGGGAGAAGGGCUCUGGC [Fiskers Ex 5 - 26] (puzzle: Exclusion 5)”, the “apparent KD of MS2 coat protein” value by setting is: under setting [3], 55.7 nM; under setting [2], 76.7 nM; under setting [4], 74.5 nM.

“GCCAGAGCAGGAUAUUCAAUAAUUCACAUGAGGAUCACCCAUGUCCAGCGAAAGCUGGAAGGAGAAGGGCUCUGGC [Fiskers Ex 5 - 3] (puzzle: Exclusion 5)”: the “apparent KD of MS2 coat protein” value under setting [2] stood at 14.5 nM.

On to “GCCAGAGCAGGAUAUUCAAUAUCACACAUGAGGAUCACCCAUGUCUGGCGAAAGCUAGAGGGAGAAGGGCUCUGGC [Mat - Exclusion 5 - Eli mod - D97] (puzzle: Exclusion 5)”, for which the “apparent KD of MS2 coat protein” value was 17.9 nM under setting [3], 38.8 nM under setting [2] and 55.2 nM under setting [4].

For “GCCCUCGCUGAGGAUAUUAUCUGGCUCGACCGAUAAGAAGGCAGUACAUGAGGAUCACCCAUGUGGUUCGUUCG [Polaris46] (Eterna round: R97, puzzle: Exclusion 6)”, the “apparent KD of MS2 coat protein” value is, setting by setting: (input ligand: FMN 200 uM) 97.9 nM; (input ligand: none) 41 nM.

As to “GCCGGAUAAGUGAGGAUAUACCUAUGGAUACAUAGGUAGAAGGCACAUGAGGAUCACCCAUGUACCUCUCCGGC [JL-BMX4-4.18 Eli mod] (Eterna round: R97, puzzle: Brourd's mod of Exclusion 4)”, the “apparent KD of MS2 coat protein” value runs as follows: (input ligand: FMN 200 uM) 87.5 nM; (input ligand: none) 14.8 nM.

“GCCGGGCGAGGAUAUACAUGGCGGGCGAAAGCCCGCGAUCUACAUGAGGAUCACCCAUGUAGAAGGCGCCCGGC [2nd Free energy optimized design] (Eterna round: R97, puzzle: Exclusion 2)”: the “apparent KD of MS2 coat protein” value was 567 nM (input ligand: FMN 200 uM) and 49.3 nM (input ligand: none).

On to “GCCUCACUUGAGGAUCACCCAAGUCAGGAUAUUCACUGAACUACGUAGCAGUUCGGCCGAAGAAGGGAUUCGGG [Azaraqu] (Eterna round: R97, puzzle: Exclusion 1)”, for which the “apparent KD of MS2 coat protein” value is, setting by setting: (input ligand: FMN 200 uM) 44.5 nM; (input ligand: none) 95.1 nM.

On to “GCCUCACUUGAGGAUCACCCAAGUCAGGAUAUUCACUGAACUGCGUAACAGUUCGGCCGAAGAAGGGAUUCGGG [Uscedian] (Eterna round: R97, puzzle: Exclusion 1)”, for which the “apparent KD of MS2 coat protein” value by setting is: (input ligand: FMN 200 uM) 35.6 nM; (input ligand: none) 96.5 nM.

“GCGCACCUACCAAAAGGUAGGCCAACAUGAGGAUCACCCAUGUAGGAUAUCGAUUGCUUUGCAGUCGAGAAGGACAUGAUGCGC [JL ENG3 3.80 Mod 8] (Eterna round: R96, puzzle: Exclusion NG 3)”: the “apparent KD of MS2 coat protein” value came out at 33.8 nM (input ligand: FMN 200 uM), 15.4 nM under setting [1] and 21.6 nM (input ligand: none).

For “GCGCACCUACCAAAAGGUAGGUCAACAUGAGGAUCACCCAUGUAGGAUAUCGAUUGCUUUGCAGUCGAGAAGGACAUGAUGCGC [JL ENG3 3.80 Mod 13] (Eterna round: R96, puzzle: Exclusion NG 3)”, the “apparent KD of MS2 coat protein” value is 111 nM (input ligand: FMN 200 uM), 36.3 nM under setting [1] and 36.7 nM (input ligand: none).

As for “GCGCCAUCGUGAGAUGGCGUAUAUACAUGAGGAUCACCCAUGUAGGAUAUCGAUUGCUUUGCAGUCGAGAAGGGCAAGGUAUUU [JL ENG3 3.91] (Eterna round: R96, puzzle: Exclusion NG 3)”, the “apparent KD of MS2 coat protein” value came out at 34 nM (input ligand: FMN 200 uM), 25.5 nM under setting [1] and 33.8 nM (input ligand: none).

In the case of “GCGCGCGCAGGAUAUACAUGAGGAUCACCCAUGUAGGGCCCGGGUAUUCCCGGGCCCUGUAGAAGGGUGUGUGU [-40.4, -37.1 kcal, A 19%, 0-6] (Eterna round: R97, puzzle: Exclusion 3)”, the “apparent KD of MS2 coat protein” value is, setting by setting: (input ligand: FMN 200 uM) 21.8 nM; (input ligand: none) 113 nM.

“GCGCGCUAAGGAUAUACAUGAGGAUCACCCAUGUGCGCGCAAAAGCGCCGCGCGCGCGGUAGAAGGUAGGCAAA [Extraordinary-Exclusion 3] (Eterna round: R97, puzzle: Exclusion 3)”: the “apparent KD of MS2 coat protein” value amounted to 16 nM (input ligand: FMN 200 uM) and 11.4 nM (input ligand: none).

In the case of “GCGCGGACAGGAUAUACAUGAGGAUCACCCAUGUGUGAGGCUAACAGUGCCAACUCUGGUAGAAGGGUCCCGGG [EX3 B.19] (Eterna round: R97, puzzle: Exclusion 3)”, the “apparent KD of MS2 coat protein” value (input ligand: FMN 200 uM) turned out to be 269 nM and the “apparent KD of MS2 coat protein” value (input ligand: none) worked out at 111 nM.

For the sequence “GCGCGUAGAUAGGAUAUUUGAUAAAGACGGACCAAAGAAGGAUUUACAUGAGGAUCACCCAUGUCGAUCCUCUU [EX6 C.17] (Eterna round: R97, puzzle: Exclusion 6)”, the “apparent KD of MS2 coat protein” value reads like this: (input ligand: FMN 200 uM) 14.2 nM; (input ligand: none) 16.4 nM.

As for “GCGGACUAGAACGUGAGUUCUGAGACAUGAGGAUCACCCAUGUAGGAUAUCGAUUCGAAACGAAUCGAGAAGGGCAUAGUCCGC [JL denovo 11] (Eterna round: R96, puzzle: Exclusion NG 3)”, the “apparent KD of MS2 coat protein” value reads like this: (input ligand: FMN 200 uM) 15.2 nM; under setting [1], 14.7 nM; (input ligand: none) 17.7 nM.

On to “GCGGAUCUAGGAUAUACAUGAGGAUCACCCAUGUAAACUCUCUUGGAUGACUACUAUUGUAGAAGGAGAUAAGC [Erlabeedle] (puzzle: Exclusion 3)”, for which, under setting [2], the “apparent KD of MS2 coat protein” value came to 24.4 nM.

In the case of “GCGUACUGAGGAUAUACAUGAGGAUCACCCAUGUGAAGAAGAAAGUAGUGAUGGUUGGGUAGAAGGCAGUAUGC [JR_Ex3_Sub064] (Eterna round: R97, puzzle: Exclusion 3)”, the “apparent KD of MS2 coat protein” value is, setting by setting: (input ligand: FMN 200 uM) 103 nM; (input ligand: none) 98.5 nM.

Regarding “GCGUUCUGAGGAUAUACAUGAGGAUCACCCAUGUUGAGAAGAAAGUAUAAAAGAUUGUGUAGAAGGCAGAGUGC [JR_Ex3_Sub070] (Eterna round: R97, puzzle: Exclusion 3)”, the “apparent KD of MS2 coat protein” value runs as follows: (input ligand: FMN 200 uM) 112 nM; (input ligand: none) 38.4 nM.
